Experimental data from the DeepSol protein solubility set.

test: soluble on expression in E. coli; label from the status in PepcDB or PDB records

| Sequence | soluble on expression in E. coli |
| --- | --- |
| NTMRSFILRARSAPTDSQRLLDEIGGKCHTEILAHCMMNSLFTAQSHREDVVIHLVLESTRDYSRTITVEANEISDVGGFHEAALIALLVKALDASVGMGKEQTRVVQPGLTVRTISFEALLGELAEHHSLYMMDKKGDSIRDIKIGPNPCFILTDHIPMPKKSGNSMKRLGVEKISLGPKMLFASQCVTLIHNEIDHQEA | not soluble |
| MSLQPILQLLEKDEQREALHYFIEKLPQLKEATESMEEKITFIQHVMNDKQTLESLFAEWEAKAAPFRLTSEHFEAIATLIQLLPTLVQWLQKAEEFVSFVTSVMNDRESMAYLTKGIKDIVPIGKGLDILKETNERFACERDSTTVSLLRIYRLLKHPIVQDGVKYIETLLDVASKHK | not soluble |
| MGSDKIHHHHHHMDSSIDLSLAYADSGVGEVLDQLDCELIGLKPVKTRIREIAALLLVDRARKDLDLASTMPSLHMSFTGRPGTGKTTVAIRISQILHRLGYLRKGHVVTVTRDDLVGQYVGHTAPKTREMIKRAQGGVLFIDEAYYLYKPGNERDYGAEAIEILLQDMESRRGDFVVIFAGYKDKMDAFYQSNPGLSSRVAHHIDFPDYSNRELLAIAQLFLVQQNYYFGDEAEGIFEDYIERRRQLPFFANARSIRNALDRTRLRQANRLFARMGEPLSRDELMTIEPADILASRVFQGEVEGRHPTQPLMESSE | not soluble |
| MPKIYTKTGDKGFSSTFTGERRPKDDQVFEAVGTTDELSSAIGFALELVTEKGHTFAEELQKIQCTLQDVGSALATPCSSAREAHLKYTTFKAGPILELEQWIDKYTSQLPPLTAFILPSGGKISSALHFCRAVCRRAERRVVPLVQMGETDANVAKFLNRLSDYLFTLARYAAMKEGNQEKIYMKNDPSAESEGL | soluble |
| YKTPLLKALSAVGKAAVDVCRYFNPEVKKVVAYLGWEQEYFLVDEGLYAARPDLLLTGRTLMGHEASKNQQLEDHYFGAIPTRVAAFMKDLEIQALELGIPVKTRHNEVAPNQFELAPIFEECNLAVDHNMLLMSLMRKVARSHGFRLLLHEKPFKGVNGSGKHNNWSLGTDTGVLLMAPGKTAEDNLRFITFIVNTLMAVYHHNGLLKASIMSATNAHRLGANEAPPAIISSFLGKQLTQVLDHIEESGNDDLVSLAGKQGMKLDIPQIPELLIDNTDRNRTSPFAFTGNRFEFRAVGSEANCASAMIALNAAVAEQLARFKQDVDALIEKGEPKISAIIEIIRRYIKECKPVRFDGNGYSDEWKAEAAHRGLDCETSCPLIFDNYLKPASIAMFESTGVMTRKELEARNEVKWETYTKKIQIEARVLGDLAMNH | not soluble |
| MHHHHHHSSGRENLYFQGTFAERYNIVCMLGKGSFGEVLKCKDRITQQEYAVKVINKASAKNKDTSTILREVELLKKLDHPNIMKLFEILEDSSSFYIVGELYTGGELFDEIIKRKRFSEHDAARIIKQVFSGITYMHKHNIVHRDLKPENILLESKEKDCDIKIIDFGLSTCFQQNTKMKDRIGTAYYIAPEVLRGTYDEKCDVWSAGVILYILLSGTPPFYGKNEYDILKRVETGKYAFDLPQWRTISDDAKDLIRKMLTFHPSLRITATQCLEHPWIQKYSSETPTISDLPSLESAMTNIRQFQAEKKLAQAALLYMASKLTTLDETKQLTEIFRKLDTNNDGMLDRDELVRGYHEFMRLKGVDSNSLIQNEGSTIEDQIDSLMPLLDMDGSGSIEYSEFIASAIDRTILLSRERMERAFKMFDKDGSGKISTKELFKLFSQADSSIQMEELESIIEQVDNNKDGEVDFNEFVEMLQNFVRNE | soluble |
| ATLHSFVLVDNGGTGNVTVVPVSNANGVAEWLSNNSRSQAYRVTASYRASGADKRKYTIKLEVPKIVTQVVNGVELPVSAWKAYASIDLTIPIFAATDDVTVISKSLTGLFKVGNPIAEAISSQSGFYA | soluble |
| MGKVLVIYDTRTGNTKKMAELVAEGARSLEGTEVRLKHVDEATKEDVLWADGLAVGSPTNMGLVSWKMKRFFDDVLGDLWGEIDGKIACAFSSSGGWGGGNEVACMSILTMLMNFGFLVFGVTDYVGKKFTLHYGAVVAGEPRSEEEKEACRRLGRRLAEWVAIFVDGRKELLEKIRKDPARFVD | soluble |
| MGSDKIHHHHHHMRATLAAAARDLNAAARFGADTACREGYHPVMLNTIIHGTPTDQPPLLIAHGLYGSGRNWGVIAKRLADERQVIAVDMRNHGLSPKTQSHSYVDLAEDLAEVIAAHGGRMDVVGHSMGGKAAMMLALRHPEAVNRLVVADIAPVSYQHTQAHFITAMRSVDLARVTRRSDAQEQLAAAGVDAMLQSFFTQSLDVENKSWRLNLDTLEREMPHILSFPEVETHWDGTALFLTGAHSDYVLPEHRPQIKRLFPAARFAKIPGAGHWLHAEKPREFEATVRGFLNA | not soluble |
| MAAEEATEFYLRYYVGHKGKFGHEFLEFEFREDGKLRYANNSNYKNDTIIRKEVFLTPAVLKECKRIVSESEILKEDDNNWPEPDRVGKQELEIVLGNEHISFATSKIGSLVDCQSSNDPEGLRIFYYLVQDLKCLVFSLISLHFKIKPILEHHHHHH | not soluble |
| MGSDKIHHHHHHMNKKSSLNNLLYIQEHRSCRNYLEKVENGFKYIEFSHEEVILEKEISWNYLLFVLEGECIINCNQFRERLFQANCMVLLPKTAMVEIKVIAGTRLLSLSFDVPLNVCDKFILQSLTGLCRKLDYNFQSLAIRYPLPPYLEIVTYCLTNKMDCGHFHTLLQQELFFLLRGFYLKEELALLFHPIISAELTFKDFVIGNYFKVSNVNDLISLSNMCKSSFYCKFKEVFGMTAKQWLLKQRNTHILNKVMTSETTVGELMEEFRFESQAHFTHYCKQHFNCTPRELIMKYQVVNQ | not soluble |
| MGSDKIHHHHHHMEVIFKRPKALSDREFTYCPGCHHGIIHRLIAEVIDELDIQEKTIMVAPVGCSVFAYEFFDVDGTVAPHGRALAVATGIKRALPDMIVFTYQGDGDLAAIGIAETIHAANRGEKLTTIFVNNAVYGMTGGQMAPTTLLGQKTTTTPYGRTAANDGYPLHVSEALSTIDGVAYLERTTVSTTKDILNTKKAIKKAFLAQIKGLGFGMVEVLSTCPTNWGMSPVEAQNWLLENMVKEFPPKVFVDKVGD | not soluble |
| MAHHHHHHMTNDTEQEQSPSAELAAAAPEPQPSQPQEFYSLRGESHNAVDQEKYGRARTHIAGLGHVSAKDVFKHYRRSWLTPFFGSNEPEPTLQQEGTQHPCQIFSREVHQCLEDHHNSFAFCQTRVAAFQQCLREFSI | not soluble |
| MISVNDFRTGLTISVDNALWQVLDFQHVKPGKGAAFVRSKLRNLRTGSVQEKTFRAGEKVEKAHIENRRMQYLYASGEAHVFMDNGTYEQIELGEKQIERELKFLKENMEVAIMTYQGEVLGVELPNTVELQVTETEPGIKGDTASNVTKPATLETGLVVQVPIFINEGEMLIINTGEGKYVSRA | not soluble |
| SLADHMLKRACEWMRFLGYTVYYPECHYDNDILKTCIEKKLVLLTRDIELYKRYALSVYIDSVNINEQIIQITRQFPPDPGKFMTKCPDCGSDLILMRSNGLDIPDKIKKSFSMVRYCNKCSKAFWPGTHYIKIIEKINRLLK | not soluble |
| MKLEVLPLDQKTFSAYGDVIETQEREFFHINNGLVERYHDLAKVEVLEQDRTLISINRAQPAAMPIVVHELERHPLGTQAFVPMNGEAFVVIVALGDDKPDLSTLRAFISNGRQGVNYHRNVWHHPLFAWQTVTDFLTVDRGGSDNCDVESIPTHELCFALEHHHHHH | soluble |
| METVPGGRWVAEIYGCDVDILEDPKMVEAALVDAVMRLGAPRDSVQSVVYKFHPQGLSAAVVSPVAAVMIHTWPEDNASATLDLYFYRDGVDPEEVLKGLTRAFGAKEESAFRYWRGTEHAIKRRGFGAEKAE | soluble |
| LITPQYKSEAKLYVLSKETTLTSLADLQIGSQLTQDYKILVGSRPVLQGVVDHMKLDMTYRKLEKKLTIDNPNNTRILTLTIKDPNPYLAKSIVDEVANTASDYIGEIMEMVPPKLIEDGEVASEKASPNVLKNT | not soluble |
| MGSDKIHHHHHHMAVVQHHLPLSARLPARGIFEDDWRDRPSKRHPYPVILIHGTGVTKGDWMELGHALRSLGYAVWAPDFGMRSTAAVAESAAQVGAYIDAVLTVTKAKKAIVVGHSQGGILARYWMHNLDGANKVSHLISLAVPHHGTSHGGMMSPLGRTPRGTAVIDSLITGFFGASGFEMLHDSELIAQLNEHGDTLPYVYYSCIATRSDTIIQPVESCFLHGKLVRNIYAQAVSKHAIILHEDMPHDPRVRRLVIAEIERVERLTIPS | not soluble |
| MGSDKIHHHHHHMDIRSLKLYLHLCDSLHFAKTAEQMHMSPSTLSRTLQRLEDEVGGKLFERDNRSVALTHAGKEFKLFAEHTLSQWLSLKGKVDPQQAQLHGQLSLYCSVTAAYSHLPKLLDRFRSIHPNVDIKLATGDAANAVNELNRNRADIAIIALPDNLASSLFFTAIDKVPLSLIVPTITCPVQQAISQANIAWQDLPYIVPEHGPGRQRADNWFKAMGFKPNIYAQVAGQEAIASMVALGCGVAISPEVVINNSPVRDRIQMLASPITIPAFELGFCCKKKRLEEAVLKAFLASWAIE | not soluble |
| MGSDKIHHHHHHMVRIALDPTPFHHDYDLLDFPDVTARLGYEYMQLTPHVDFGPFFRHPKADDDLVAALKKRAKDAGVTIPALLPVQRISWPEETQRVAAVRNIKRIIQLAVDLEVDTLNTEFSGRPERSEDSEDAFYRSMEELLPILEKEGIKFNIDPHPDDFVENGIEAWRVIRGLNSKQVGFVYVAPHSFHMGDQAEAILPAVGDRLGAVYLSDTFDHHKSHGLRYITNPPGNAVRVHQHLKIGDGDVNFEEIFSLLRSTGYLDREDALLVSNVFAEDEAADEVSRYQLEKIRSLIENA | not soluble |
| MAKAKTQFVCQNCGTVHNRWAGKCEGCGEWNTIVEEDPMGGIGSGPGKVPKKGRPVTLTSLSGEIEEAPRIPTGISELDRATGGGFVRGSAVLIGGDPGIGKSTLLMQAAAALSRRGHRVIYVSGEEAVAQVRLRAQRLGSADTDVLLAAETNVEDILATVSEGKRPDLIIIDSIQTLWSDTADSAPGTVTQVRTGVQAMIRFAKQTGATMVLVGHVTKEGQIAGPRVVEHMVDAVLYFEGDRGHHYRILRTVKNRFGPTDEIGVFEMSDGGLREVSNPSELFLGERNEKSPGAAVFAGIEGTRPVLVEVQALVAATSLGTPRRAVVGWDSSRLAMILAVLEAHCGVKLGQHDVYLNVAGGYRISEPAADMAIASALVSSLAGLALPADCVYFGEISLSGAVRPVAHTVQRLKEAEKLGFSAALLPSGSAELPKAGKGRWTEIESLPDLVAHIAGSGNRFKQVEDDEY | not soluble |
| MLDRPHHTTADIIARCEALFSDLSFTAAREWKAAEPGRIVVGFLPYYAPRELVHAAGGLPLGIFGGGDQLEVIHGDAYYQSYICRIPRSTIELGVSGRLDFVDGMMFPSICDVIRNLSGMWKLMFPSKGARYIDLPHNFDDDLGGEFYVSELRETCEWLSTLTGKPITSDAIRASIAVFNDNRRLIRALYQLRADEPWNVPSSELYLLLRAGMVIPVEEHNQMLADYLAAVRLQQRPIKDNSRVVICGMFCEQPPLNLIKSIELSGCYIVDDDFILVTRWENSDVALDGDPLSNLASAYLHDSKSTPPKYEPDEAKKGLYLVDSVRKNRAEGVIFAMTSFCDPGLLERPMLQAVLKSHGIPQIAFKYAENSGQMQPIREQAGTFADSIKLWSGA | not soluble |
| MSLADLLDTVKQRGALKIALEGTYPPFNFKDAKQQLTGFDVEIATEIARRMKVKPEFVTAEWSGLLAGLQSGKFDIVVNQVGVTAQRQAVFDFSQPYTYSSAQLIVRKNESRDFKNLADLKGKKLGVGQGSNYADMAKAAAGVQVKTYPGAPEYLQDLATGRLDAALNDSLLIPFAIKQAKLPLKAGAPVGEVAAMAIPFAKGNPQFKSEIDKALGGMKADGTFRKISVKWFGIDVSKAEGHHHHHH | soluble |
